Data taken from patent publication US7803910B2, “Soluble CD164 polypeptides” (Merck Serono S.A., priority 2005, dated 2010).

Experiments:
[1] = test system: female mice (Balb/c); assay: Dextran Sodium Sulfate-induced ulcerative colitis model; type: in vivo
Experimental: The DSS model of colitis mimics some aspects of the human affection such as macrophage infiltration and up regulation of inflammatory cytokines (i.e. TNFα, IL-1p, IL-6) in the colon mucosa.
Ulcerative colitis (UC) was induced in female mice (Balb/c, 20-22 g, Elevage Janvier) by Dextran Sodium Sulfate (DSS 4%) administered in drinking water (oral route). The mice had free access to DSS during 7 days. Body weight was determined daily. The severity of the UC was assessed by a clinical score estimating the constituency of the stool (0=firm, 1=loose, 2=diarrhea) and the presence of blood (0=no blood, 1=occult blood, 2=gross rectal bleeding). Seven days after the induction of the disease, the animals were sacrificed. The length and the weight of the colon were determined and the ratio Weight/Length/100 g body weight was calculated. The spleen weight was also determined. Blood was sampled to determine serum amyloid protein (SAA) using a specific ELISA.
Test substances or vehicle (PBS/0.02% BSA) was administered at days 3, 4, 5 and 6 after the induction of the UC. Enbrel® (1 mg/kg, sc) was used as reference compound. Three studies were performed as per the following table:
In Study 3, the content of IL-1β in the colon was also measured.

[2] = test system: LPS-induced TNFα release; assay: LPS-induced TNFalpha release in mice (Example 5); type: in vivo, C3H mice
Experimental: C3H mice (Elevage Janvier) (8 week old), received E. Coli's LPS (O111:B4, Sigma, 0.3 mg/kg, ip) 15 minutes after the administration of the test molecules. LPS was solubilized in sterile saline. Dexamethasone (0.1 mg/kg, sc) was used as reference. 24 h later, the animals were sacrificed and the blood was sampled. Plasma levels of TNF-αwere determined in serum using an ELISA kit (R&D). Statistical analysis was determined with an ANOVA test followed by a post-test of Dunnett.

B1: sCD164-Fcm: SEQ ID NO: 18, sCD164 fused to an Fc part mutated in the Fc receptor and C1q binding regions (protein, listed as Homo sapiens)
chain: DKNTTQHPNVTTLAPISNVTSAPVTSLPLVTTPAPETCEGRNSCVSCFNVSVVNTTCFWIECKDESYCSHNSTVSDCQVGNTTDFCSVSTATPVPTANSTAKPTVQPSPSTTSKTVTTSGTTNNTVTPTSQPVRKSTFDAEPKSCDKTHTCPPCPAPEAEGAPSVFLFPPKPKDTLMISRTPEVTCVVVDVSHEDPEVKFNWYVDGVEVHNAKTKPREEQYNSTYRVVSVLTVLHQDWLNGKEYKCKVSNKALPSSIEKTISKAKGQPREPQVYTLPPSREEMTKNQVSLTCLVKGFYPSDIAVEWESNGQPENNYKTTPPVLDSDGSFFLYSKLTVDKSRWQQGNVFSCSVMHEALHNHYTQKSLSLSPGK
- clinical score ([1]; Study 1, 1 mg/kg, ip, day 6): −23%
- increase in serum amyloid protein A ([1]; Study 1, 3 mg/kg, ip): −36%
- splenomegaly ([1]; Study 1, 3 mg/kg, ip): −27%
- clinical score ([1]; Study 1, 3 mg/kg, ip, day 6): −32%
- colon reduction, length ([1]; Study 1, 3 mg/kg, ip, days 3-6): −21%
- body weight loss ([1]; Study 1, 0.3, 1, 3 mg/kg ip): not affected
- ratio weight/length (colon) ([1]; Study 1, 0.3, 1, 3 mg/kg ip): not affected
- colon reduction, length ([1]; Study 2, 0.3 mg/kg, sc): −13%
- colon reduction, ratio weight/length ([1]; Study 2, 0.3 mg/kg, sc): −26%
- colon reduction, length ([1]; Study 2, 1 mg/kg, sc): −18%
- colon reduction, ratio weight/length ([1]; Study 2, 1 mg/kg, sc): −46%
- body weight loss ([1]; Study 2, 1 mg/kg, sc, day 5 to day 7): reduced significantly
- clinical score ([1]; Study 2, 1 mg/kg, sc, day 6): −22%
- increase in serum amyloid protein A ([1]; Study 2, 3 mg/kg, sc): significantly decreased
- splenomegaly ([1]; Study 2, 0.3, 1, 3 mg/kg sc): not improved
- colon reduction, length ([1]; Study 3, 0.3 mg/kg, sc): −18%
- colon reduction, ratio weight/length ([1]; Study 3, 0.3 mg/kg, sc): −19%
- body weight loss ([1]; Study 3, 1 mg/kg, sc): did not have any effect
- clinical score ([1]; Study 3, 1 mg/kg, sc): tended to improve
- colon reduction, length ([1]; Study 3, 1 mg/kg, sc): −26%
- colon reduction, ratio weight/length ([1]; Study 3, 1 mg/kg, sc): −25%
- content of IL-1β in colon ([1]; Study 3, 1 mg/kg, sc): tended to improve
- serum amyloid A protein ([1]; Study 3, 1 mg/kg, sc): did not have any effect
- body weight loss ([1]; Study 3, 0.3 and 1 mg/kg, sc): did not have any effect
- clinical score ([1]; Study 3, 0.3 and 1 mg/kg, sc): trended to improve
- serum amyloid A protein ([1]; Study 3, 0.3 and 1 mg/kg, sc): did not have any effect
- splenomegaly ([1]; Study 3, 0.3 and 1 mg/kg, sc): trended to improve
- content of IL-1β in colon ([1]; Study 3, 0.3 and 1 mg/kg, sc (dose of the single value not stated)): −22%

B2: sCD164: SEQ ID NO: 15, mature full-length CD164 extracellular domain (exons 1 to 6), expressed with C-terminal hexa-histidine tag (protein)
chain: DKNTTQHPNVTTLAPISNVTSAPVTSLPLVTTPAPETCEGRNSCVSCFNVSVVNTTCFWIECKDESYCSHNSTVSDCQVGNTTDFCSVSTATPVPTANSTAKPTVQPSPSTTSKTVTTSGTTNNTVTPTSQPVRKSTFDA
modifications: homo sapiens
- LPS-induced TNFα release ([2]; 1 mg/kg iv, 15 minutes prior to LPS, P<0.001): significantly decrease
- TNFα release after LPS induction ([2]; previous experiments in this model): decrease TNFα release
